From patent publication US20050245438A1 (SALK INSTITUTE FOR BIOLOGICAL STUDIES, published 2005)
Numbered stars: 1 amine (or outer) side, 2 acyl side, 3 side chain; on linkers, the order of the positions; unused ones are H or OH. Bridge positions count the residues as written; N and C are the ends. Square brackets hold non-standard residues; d marks the D form. Ends that are not written are not given here. * marks the point of attachment. (2S,3R)βMe2Nal = L-threo-(2S,3R)-β-methyl-2-naphthylalanine, (2S,3R)-2-amino-3-(naphthalen-2-yl)butanoic acid, C[C@H](c1ccc2ccccc2c1)[C@H](N[*:1])C(=O)[*:2]; threo‑(2S,3R)CβMe‑2Nal = threo-(2S,3R)-β-methyl-2-naphthylalanine (L-threo), C[C@H](c1ccc2ccccc2c1)[C@H](N[*:1])C(=O)[*:2]; d2Nal(3S-Me) = C[C@@H](c1ccc2ccccc2c1)[C@@H](N)C(=O)O; Phe(4-CH2NH2) = NCc1ccc(C[C@H](N)C(=O)O)cc1; Tyr(127I) = tyrosine iodinated with ^127I; Phe(4-NH2) = Nc1ccc(C[C@H](N)C(=O)O)cc1; 2Nal = N[C@@H](Cc1ccc2ccccc2c1)C(=O)O; Carbamoyl = NC(=O)*

B1: (cyclo)H-Tyr-Cys-Phe-4Aph-Trp-Lys-Thr-Phe-Cys-OH (peptide)
peptide: H-YCF[Phe(4-NH2)]WKTFC-OH
modifications: disulfide 2-9
notes: synthetic cyclic nonapeptide; also called Peptide No. 6
B2: (cyclo)Cbm-Tyr-Cys-Phe-4Aph-Trp-Lys-Thr-Phe-Cys-OH (peptide)
peptide: Carbamoyl-YCF[Phe(4-NH2)]WKTFC-OH
modifications: disulfide 2-9
notes: synthetic cyclic nonapeptide; also called Peptide No. 8
B3: des-AA^1,2,4,5,12,13-[Ala^7]SRIF, (cyclo)H-Cys-Phe-Ala-Trp-Lys-Thr-Phe-Cys-OH (peptide)
peptide: H-CFAWKTFC-OH
modifications: disulfide 1-8
SMILES: C[C@@H]1NC(=O)[C@H](Cc2ccccc2)NC(=O)[C@@H](N)CSSC[C@@H](C(=O)O)NC(=O)[C@H](Cc2ccccc2)NC(=O)[C@H]([C@@H](C)O)NC(=O)[C@H](CCCCN)NC(=O)[C@H](Cc2c[nH]c3ccccc23)NC1=O
notes: synthetic cyclic octapeptide; also called Peptide No. 12
B4: (cyclo)H-Cys-Phe-Ala-D-Trp-Lys-Thr-Phe-Cys-OH (peptide)
peptide: H-CFA[dW]KTFC-OH
modifications: disulfide 1-8
SMILES: C[C@@H]1NC(=O)[C@H](Cc2ccccc2)NC(=O)[C@@H](N)CSSC[C@@H](C(=O)O)NC(=O)[C@H](Cc2ccccc2)NC(=O)[C@H]([C@@H](C)O)NC(=O)[C@H](CCCCN)NC(=O)[C@@H](Cc2c[nH]c3ccccc23)NC1=O
notes: synthetic cyclic octapeptide; also called Peptide 11; Peptide No. 11
B5: (cyclo)Cys-Phe-Ala-D-Trp-Lys-Thr-Ala-Cys-OH (peptide)
peptide: CFA[dW]KTAC-OH
modifications: disulfide 1-8
notes: synthetic cyclic octapeptide; also called Peptide No. 12B
B6: (cyclo)H-Cys-Phe-Ala-Trp-Lys-Thr-Ala-Cys-OH (peptide)
peptide: H-CFAWKTAC-OH
modifications: disulfide 1-8
notes: synthetic cyclic octapeptide; also called Peptide 12A; Peptide No. 12A
B7: (cyclo)H-Cys-Phe-Tyr-threo-(2S,3R)C^βMe-2Nal-Lys-Thr-Phe-Cys-OH (peptide)
peptide: H-CFY[threo‑(2S,3R)CβMe‑2Nal]KTFC-OH
modifications: disulfide 1-8
SMILES: C[C@H](c1ccc2ccccc2c1)[C@@H]1NC(=O)[C@H](Cc2ccc(O)cc2)NC(=O)[C@H](Cc2ccccc2)NC(=O)[C@@H](N)CSSC[C@@H](C(=O)O)NC(=O)[C@H](Cc2ccccc2)NC(=O)[C@H]([C@@H](C)O)NC(=O)[C@H](CCCCN)NC1=O
notes: later-eluting isomer, determined to incorporate the L-threo-β-Me-2Nal residue; also called Peptide No. 17A; 17a
B8: des-AA^1,2,4,5,12,13[4Aph^7]-SRIF, (cyclo)H-Cys-Phe-4Aph-Trp-Lys-Thr-Phe-Cys-OH (peptide)
peptide: H-CF[Phe(4-NH2)]WKTFC-OH
modifications: disulfide 1-8
notes: synthetic cyclic octapeptide, free N-terminus and free acid C-terminus; also called Peptide No. 1
B9: (cyclo)H-Cys-Phe-4Aph-Trp-Lys-Thr-Tyr-Cys-OH (peptide)
peptide: H-CF[Phe(4-NH2)]WKTYC-OH
modifications: disulfide 1-8
notes: synthetic cyclic octapeptide; also called Peptide 9; Peptide No. 9
B10: (cyclo)Cbm-Cys-Phe-4Aph-D-Trp-Lys-Thr-Tyr-Cys-OH (peptide)
peptide: Carbamoyl-CF[Phe(4-NH2)][dW]KTYC-OH
modifications: disulfide 1-8
notes: synthetic cyclic octapeptide; also called Peptide No. 10A
B11: (cyclo)Cbm-Cys-Phe-4Aph-Trp-Lys-Thr-Tyr-Cys-OH (peptide)
peptide: Carbamoyl-CF[Phe(4-NH2)]WKTYC-OH
modifications: disulfide 1-8
notes: synthetic cyclic octapeptide; also called Peptide No. 10
B12: (cyclo)Cbm-Tyr-Cys-Phe-Ala-Trp-Lys-Thr-Phe-Cys-OH (peptide)
peptide: Carbamoyl-YCFAWKTFC-OH
modifications: disulfide 2-9
notes: synthetic cyclic nonapeptide; also called Peptide No. 13B
B13: (cyclo)H-Tyr-Cys-Phe-4 Amp-Trp-Lys-Thr-Phe-Cys-OH (peptide)
peptide: H-YCF[Phe(4-CH2NH2)]WKTFC-OH
modifications: disulfide 2-9
notes: here position 7 is 4Amp; also called Peptide 15; Peptide No. 15
B14: (cyclo)H-Cys-Phe-Tyr-threo-(2R,3S)C^βMe-2Nal-Lys-Thr-Phe-Cys-OH (peptide)
peptide: H-CFY[d2Nal(3S-Me)]KTFC-OH
modifications: disulfide 1-8
SMILES: C[C@@H](O)[C@@H]1NC(=O)[C@H](CCCCN)NC(=O)[C@@H]([C@@H](C)c2ccc3ccccc3c2)NC(=O)[C@H](Cc2ccc(O)cc2)NC(=O)[C@H](Cc2ccccc2)NC(=O)[C@@H](N)CSSC[C@@H](C(=O)O)NC(=O)[C@H](Cc2ccccc2)NC1=O
notes: also called Peptide No. 17
B15: (cyclo)Cbm-Cys-Phe-4Aph-Trp-Lys-Thr-Phe-Cys-OH (peptide)
peptide: Carbamoyl-CF[Phe(4-NH2)]WKTFC-OH
modifications: disulfide 1-8
notes: synthetic cyclic octapeptide; also called Peptide No. 3
B16: Peptide No. 13 iodinated with ^127I (peptide)
peptide: [Tyr(127I)]CFAWKTFC
modifications: disulfide 2-9
notes: also called Peptide No. 13A; the I-Tyr^2 analog
B17: (cyclo)H-D-Cys-Phe-Tyr-threo-(2S,3R)C^βMe-2Nal-Lys-Thr-Phe-Cys-OH (peptide)
peptide: H-[dC]FY[(2S,3R)βMe2Nal]KTFC-OH
modifications: disulfide 1-8
SMILES: C[C@H](c1ccc2ccccc2c1)[C@@H]1NC(=O)[C@H](Cc2ccc(O)cc2)NC(=O)[C@H](Cc2ccccc2)NC(=O)[C@H](N)CSSC[C@@H](C(=O)O)NC(=O)[C@H](Cc2ccccc2)NC(=O)[C@H]([C@@H](C)O)NC(=O)[C@H](CCCCN)NC1=O
notes: also called Peptide No. 16A; Peptide 16A
B18: (cyclo)Cbm-Tyr-Cys-Phe-Amp-Trp-Lys-Thr-Phe-Cys-OH (peptide)
peptide: Carbamoyl-YCF[Phe(4-CH2NH2)]WKTFC-OH
modifications: disulfide 2-9
notes: synthetic cyclic nonapeptide; also called Peptide No. 15A
B19: (cyclo)H-Tyr-Cys-Phe-Ala-D-Trp-Lys-Thr-Phe-Cys-OH (peptide)
peptide: H-YCFA[dW]KTFC-OH
modifications: disulfide 2-9
notes: synthetic cyclic nonapeptide; also called Peptide No. 14
B20: (cyclo)H-Tyr-Cys-Phe-4Aph-D-Trp-Lys-Thr-Phe-Cys-OH (peptide)
peptide: H-YCF[Phe(4-NH2)][dW]KTFC-OH
modifications: disulfide 2-9
notes: synthetic cyclic nonapeptide; also called Peptide No. 7
B21: (cyclo)H-Tyr-Cys-Phe-Ala-Trp-Lys-Thr-Phe-Cys-OH (peptide)
peptide: H-YCFAWKTFC-OH
modifications: disulfide 2-9
notes: synthetic cyclic nonapeptide; also called Peptide No. 13
B22: (cyclo)H-Cys-Phe-4Aph-2Nal-Lys-Thr-Phe-Cys-OH (peptide)
peptide: H-CF[Phe(4-NH2)][2Nal]KTFC-OH
modifications: disulfide 1-8
SMILES: C[C@@H](O)[C@@H]1NC(=O)[C@H](CCCCN)NC(=O)[C@H](Cc2ccc3ccccc3c2)NC(=O)[C@H](Cc2ccc(N)cc2)NC(=O)[C@H](Cc2ccccc2)NC(=O)[C@@H](N)CSSC[C@@H](C(=O)O)NC(=O)[C@H](Cc2ccccc2)NC1=O
notes: synthetic cyclic octapeptide; also called Peptide 5; Peptide No. 5
B23: (cyclo)H-Cys-Phe-4Aph-D-Trp-Lys-Thr-Phe-Cys-OH (peptide)
peptide: H-CF[Phe(4-NH2)][dW]KTFC-OH
modifications: disulfide 1-8
notes: synthetic cyclic octapeptide; also called Peptide No. 2

The binders below were run against T1, cloned human SRIF receptor SSTR4 (human, UniProt P31391 1-388) (assay: radioligand displacement (125I-[Leu8,D-Trp22,Tyr25]SRIF-28), membrane pellet sections).
T1 construct: whole, on cells; assayed as cryostat sections of membrane pellets of the transfected cells; also called hSSTR4
T1 sequence (P31391 whole entry): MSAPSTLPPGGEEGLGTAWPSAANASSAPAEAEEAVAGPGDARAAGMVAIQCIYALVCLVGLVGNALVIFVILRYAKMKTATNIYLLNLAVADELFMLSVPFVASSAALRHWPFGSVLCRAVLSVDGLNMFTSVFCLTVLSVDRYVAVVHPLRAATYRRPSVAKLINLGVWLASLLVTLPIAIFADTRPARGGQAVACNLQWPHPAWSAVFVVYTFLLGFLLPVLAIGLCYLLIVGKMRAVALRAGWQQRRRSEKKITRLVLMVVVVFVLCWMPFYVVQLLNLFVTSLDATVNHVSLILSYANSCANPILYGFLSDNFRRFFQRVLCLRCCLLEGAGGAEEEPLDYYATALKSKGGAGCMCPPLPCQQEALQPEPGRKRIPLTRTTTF
Method: (§1) Cells are washed twice with and scraped into ice-cold 0.05 M Tris-HCl (pH 7.4), collected by centrifugation, and homogenized using a rotor/stator/system in the same buffer. After centrifugation at 120 g for 5 min at 4° C., the supernatant is collected and centrifuged again at 48,000 g for 30 min at 4° C. The resulting pellet is resuspended in ice-cold Tris buffer, transferred into a microfuge tube, and centrifuged at 20,000 g for 15 min at 4° C. After withdrawal of the supernatant, the membrane pellet is stored at −80° C.
(§2) Receptor autoradiography is performed on 20 μm thick cryostat sections of the membrane pellets, mounted on microscope slides, and then stored at −20° C. […] Increasing concentrations of the unlabeled peptide are used ranging from 0.1-1000 nM. Unlabeled somatostatin-28 is run in parallel using the same increasing concentrations, as a control. IC₅₀ values are calculated after quantification of the data using a computer-assisted image processing system as known in this art.

Binder | IC50
B1 | 1.9 nM
H-[dC]FY[d2Nal(3S-Me)]KTFC-OH (disulfide 1-8, also called Peptide No. 16) [(cyclo)H-D-Cys-Phe-Tyr-threo-(2R,3S)C^βMe-2Nal-Lys-Thr-Phe-Cys-OH] | 0.55 nM
B2 | 1.2 nM
B3 | 0.84 nM
B4 | 0.98 nM
B5 | 9.5 nM
B6 | 3.5 nM
B7 | 2.8 nM
B8 | 1.2 nM
B9 | 1.1 nM
B10 | 4.3 nM
B11 | 3 nM
B12 | 2.36 nM
B13 | 2.4 nM
B14 | 2.3 nM
B15 | 1.46 nM
B16 | 3.5 nM
B17 | 3.5 nM
B18 | 3.2 nM
B19 | 1.1 nM
B20 | 1.2 nM
B21 | 1.98 nM
B22 | 2.9 nM
B23 | 0.88 nM

The binders below were run against T2, cloned human SRIF receptor SSTR3 (human, UniProt P32745 1-418) in the same assay as above.
T2 construct: whole, on cells; assayed as cryostat sections of membrane pellets of the transfected cells; also called hSSTR3
T2 sequence (P32745 whole entry): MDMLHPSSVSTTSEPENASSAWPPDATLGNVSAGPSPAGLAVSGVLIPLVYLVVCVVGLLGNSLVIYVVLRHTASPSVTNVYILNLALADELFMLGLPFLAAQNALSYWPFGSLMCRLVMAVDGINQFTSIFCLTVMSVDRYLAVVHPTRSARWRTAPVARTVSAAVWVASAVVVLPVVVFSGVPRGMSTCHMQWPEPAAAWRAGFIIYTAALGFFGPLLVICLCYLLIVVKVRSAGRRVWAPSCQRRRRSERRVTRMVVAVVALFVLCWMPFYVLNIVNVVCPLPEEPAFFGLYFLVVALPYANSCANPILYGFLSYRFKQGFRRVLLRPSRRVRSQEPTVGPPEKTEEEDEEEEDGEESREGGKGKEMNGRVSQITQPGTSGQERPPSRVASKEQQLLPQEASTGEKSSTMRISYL
Method: as §1, §2

Binder | IC50
B1 | 135 nM
H-[dC]FY[d2Nal(3S-Me)]KTFC-OH (disulfide 1-8, also called Peptide No. 16) [(cyclo)H-D-Cys-Phe-Tyr-threo-(2R,3S)C^βMe-2Nal-Lys-Thr-Phe-Cys-OH] | 14 nM
B2 | 210 nM
B3 | 750 nM
B4 | 897 nM
B7 | 825 nM
B12 | 980 nM
B13 | 326 nM
B14 | 18 nM
B15 | 780 nM
B16 | 1020 nM
B17 | 664 nM
B18 | 197 nM
B19 | 347 nM
B20 | 263 nM
B21 | 621 nM
B22 | 630 nM
B23 | 271 nM

The binders below were run against T3, cloned human SRIF receptor SSTR2 (human, UniProt P30874 1-369) in the same assay as above.
T3 construct: whole, on cells; assayed as cryostat sections of membrane pellets of the transfected cells; also called hSSTR2
T3 sequence (P30874 whole entry): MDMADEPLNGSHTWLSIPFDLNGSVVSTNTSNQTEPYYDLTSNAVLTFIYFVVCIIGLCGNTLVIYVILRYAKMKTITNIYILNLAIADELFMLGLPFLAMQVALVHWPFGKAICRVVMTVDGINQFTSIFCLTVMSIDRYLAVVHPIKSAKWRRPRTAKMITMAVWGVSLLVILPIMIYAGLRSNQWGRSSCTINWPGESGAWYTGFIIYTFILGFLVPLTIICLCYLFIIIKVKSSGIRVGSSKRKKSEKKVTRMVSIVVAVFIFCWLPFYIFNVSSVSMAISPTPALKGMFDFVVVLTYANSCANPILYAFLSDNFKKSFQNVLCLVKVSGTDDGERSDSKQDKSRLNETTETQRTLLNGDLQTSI
Method: as §1, §2

Binder | IC50
B1 | 260 nM
H-[dC]FY[d2Nal(3S-Me)]KTFC-OH (disulfide 1-8, also called Peptide No. 16) [(cyclo)H-D-Cys-Phe-Tyr-threo-(2R,3S)C^βMe-2Nal-Lys-Thr-Phe-Cys-OH] | 12 nM
B2 | 550 nM
B3 | 807 nM
B4 | 183 nM
B7 | 194 nM
B8 | 347 nM
B9 | 170 nM
B10 | 227 nM
B12 | 700 nM
B13 | 259 nM
B14 | 30 nM
B17 | 339 nM
B18 | 118 nM
B19 | 57 nM
B20 | 56 nM
B21 | 622 nM
B23 | 71 nM

Each binder was assayed against T4, cloned human SRIF receptor SSTR5 (human, UniProt P35346 1-364) in the same assay as above.
T4 construct: whole, on cells; assayed as cryostat sections of membrane pellets of the transfected cells; also called hSSTR5
T4 sequence (P35346 whole entry): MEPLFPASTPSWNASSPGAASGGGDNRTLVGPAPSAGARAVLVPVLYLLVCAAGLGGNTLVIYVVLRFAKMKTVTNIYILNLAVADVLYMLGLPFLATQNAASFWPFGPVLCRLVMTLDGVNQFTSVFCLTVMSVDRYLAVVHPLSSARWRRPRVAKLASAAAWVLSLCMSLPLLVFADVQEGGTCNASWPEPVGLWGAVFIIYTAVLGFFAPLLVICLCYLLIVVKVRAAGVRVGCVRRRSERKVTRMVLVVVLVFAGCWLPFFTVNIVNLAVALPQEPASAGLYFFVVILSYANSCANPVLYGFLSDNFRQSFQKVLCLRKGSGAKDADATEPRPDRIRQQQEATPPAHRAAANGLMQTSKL
Method: as §1, §2

Binder | IC50
H-[dC]FY[d2Nal(3S-Me)]KTFC-OH (disulfide 1-8, also called Peptide No. 16) [(cyclo)H-D-Cys-Phe-Tyr-threo-(2R,3S)C^βMe-2Nal-Lys-Thr-Phe-Cys-OH] | 27 nM
B3 | 633 nM
B4 | 199 nM
B7 | 360 nM
B9 | 240 nM
B10 | 110 nM
B11 | 557 nM
B14 | 18 nM
B17 | 668 nM
B22 | 610 nM
B23 | 30 nM

What follows are binders tested against T5, cloned human SRIF receptor SSTR1 (human, UniProt P30872 1-391) in the same assay as above.
T5 construct: whole, on cells; also called hSSTR1
T5 sequence (P30872 whole entry): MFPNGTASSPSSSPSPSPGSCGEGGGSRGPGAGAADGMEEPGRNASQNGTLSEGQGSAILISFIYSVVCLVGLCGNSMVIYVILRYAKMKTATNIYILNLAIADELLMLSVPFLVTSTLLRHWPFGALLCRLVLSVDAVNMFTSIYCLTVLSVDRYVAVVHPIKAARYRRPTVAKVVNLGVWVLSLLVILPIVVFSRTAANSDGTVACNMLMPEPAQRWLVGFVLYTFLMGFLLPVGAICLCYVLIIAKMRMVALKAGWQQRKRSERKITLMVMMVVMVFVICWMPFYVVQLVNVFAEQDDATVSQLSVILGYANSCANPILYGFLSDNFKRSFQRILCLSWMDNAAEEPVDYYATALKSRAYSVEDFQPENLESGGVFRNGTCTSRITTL
Method: as §1, §2

Binder | IC50
B1 | 270 nM
H-[dC]FY[d2Nal(3S-Me)]KTFC-OH (disulfide 1-8, also called Peptide No. 16) [(cyclo)H-D-Cys-Phe-Tyr-threo-(2R,3S)C^βMe-2Nal-Lys-Thr-Phe-Cys-OH] | 545 nM
B2 | 347 nM
B8 | 213 nM
B9 | 327 nM
B11 | 757 nM
B14 | 410 nM
B15 | 650 nM
B19 | 330 nM
B20 | 517 nM
B22 | ~1100 nM
B23 | 450 nM
